Assays:
[1] = tested on: colon cancer cell line HCT-116; assay: Trypan blue assay, cell viability and cell growth inhibition; type: cell-based; details: HCT-116, 1.25 µg mRNA, 24 hours
Method: T001 is more specific to the nucleic acid T due to its structural difference from NT5M. Therefore, nucleic acid imbalance due to the loss of dTTP rather than the overall loss of nucleic acid may have a greater effect on cancer cell metabolism and thereby inhibit the growth of cancer cells. […] Each mRNA was transfected into the colon cancer cell line HCT-116, and 24 hours thereafter, Trypan blue assay was performed and the results of cell viability and cell growth inhibition on HCT-116 are shown in FIG. 13. The specific experimental method is as follows.
HCT-116 cells were transfected with 1.25 µg each of non-mature form NT5M, mature form NT5M, and CT mRNA. After 24 hours, the resultants were each treated with trypsin and the cells were harvested using a centrifuge. After resuspending the harvested cells with 1× DPBS, a certain amount of cells were mixed with trypan blue reagent at a 1:1 ratio. After incubation for 2 minutes at room temperature (RT), the number of cells was counted using a hemocytometer. After obtaining the number of cells stained and unstained with the trypan blue reagent, the number of viable and non-viable cells was obtained, and then divided by the total number of cells to obtain the viability. Each experiment was repeated three or more times to evaluate the significance.

dTMP [2] = details: read-out: Preferred Substrate (Km), dTMP; cited from earlier work
dGMP = details: read-out: Preferred Substrate (Km), dGMP; cited from earlier work
dUMP = details: read-out: Preferred Substrate (Km), dUMP; cited from earlier work
recombinant CD47 protein = recombinant CD47 protein (Homo sapiens, UniProt Q08722); assay: SPR, CD47 conjugated to CM5 chip by EDC-NHS; type: binding
Method: Specifically, the recombinant CD47 protein was conjugated to the surface of the CM5 chip by a target SPR reaction of 250 RU through an EDC-NHS reaction to be used, and for HBS-P, the sensogram obtained through a process of association for 3 minutes and dissociation for 10 minutes at a flow rate of 30 µL/minutes was analyzed with the BiaEvaluation software using a 1:1 binding model and global fitting.

dTMP [3] = assay: 5′-nucleotidase preferred substrate Km, dTMP; type: biochemical; details: according to Table 4
dAMP = details: read-out: Preferred Substrate (Km), dAMP; cited from earlier work
[4] = CM5 chip, CD47 250 RU, 30 µL/minutes

Sequence of recombinant CD47 protein (Q08722 19-323): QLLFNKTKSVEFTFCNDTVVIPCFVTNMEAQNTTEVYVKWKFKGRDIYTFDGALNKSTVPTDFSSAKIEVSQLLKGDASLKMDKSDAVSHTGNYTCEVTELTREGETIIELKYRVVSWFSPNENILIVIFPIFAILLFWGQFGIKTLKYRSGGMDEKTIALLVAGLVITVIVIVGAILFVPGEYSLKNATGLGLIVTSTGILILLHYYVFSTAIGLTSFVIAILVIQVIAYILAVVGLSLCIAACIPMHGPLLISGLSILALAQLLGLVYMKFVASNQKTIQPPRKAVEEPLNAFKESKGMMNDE

Molecule	effect on cells (cell viability and cell growth inhibition) [1]	Km (dTMP [2]) [µM]	Km (dGMP) [µM]	Km (dUMP) [µM]	binding activity when conjugated with DSPE and when inserted into liposomes (recombinant CD47 protein)	ka (recombinant CD47 protein; [4]) [M⁻¹ s⁻¹]	kd (recombinant CD47 protein; [4]) [s⁻¹]	affinity for dTMP lower than T001 (dTMP [3]) [times]	Km (dAMP) [mM]
T001: Thymidylate 5′-phosphohydrolase derived from bacteriophage PBS2, gene sequence optimized (SEQ ID NO: 3); final drug form mRNA (protein, T001, final drug form mRNA) MVFSIKEPFSIVTDCDEVLTDISPLWVHKIQQNADYFGKYFDLSKLEGLEFGTFEHYQTVLSRPEFHLNKWLRKENLVLSDEEEKELFERFYSLYDNDEFYEDCMPTKMCEGIYKLSLQKFVDKIYVVTRTSEGTKEGKRKFIETFLNSNKVEIIFVGKNEKKSDYIKNLKNVKMIVEDELSNINDIVENCNDGFEEVDTYIPSTGYNNKDIDGFNENLMKKGFNAVPYVIIERPETEEKAV	greater than that of human NT5M	10	700	800	–	–	–	–	–
SV4: binder of SEQ ID NO: 2; SV1 with lysines at the 11th and 104th positions substituted with leucine (protein, CD47 binder SV4) MEEELQIIQPDLSVSVAAGESAILHCTITSLFPVGPIQWFRGAGPARVLIYNQRQGPFPRVTTVSETTKRENMDFSISISNITPADAGTYYCIKFRKGSPDTEFLSGAGTELSVRAKPS	–	–	–	–	maintained within the error range	164000	0.000275	–	–
NT5M (hdNT-2): human mitochondrial 5′-nucleotidase (SEQ ID NO: 32) (protein, NT5M) MGGRALRVLVDMDGVLADFEGGFLRKFRARFPDQPFIALEDRRGFWVSEQYGRLRPGLSEKAISIWESKNFFFELEPLPGAVEAVKEMASLQNTDVFICTSPIKMFKYCPYEKYAWVEKYFGPDFLEQIVLTRDKTVVSADLLIDDRPDITGAEPTPSWEHVLFTACHNQHLQLQPPRRRLHSWADDWKAILDSKRPC	–	300	90	160	–	–	–	30	–
SV4-DSPE: DSPE-conjugated form of SV4 (NHS-activated DSPE-PEG2000 with SV4 protein) (conjugate) MEEELQIIQPDLSVSVAAGESAILHCTITSLFPVGPIQWFRGAGPARVLIYNQRQGPFPRVTTVSETTKRENMDFSISISNITPADAGTYYCIKFRKGSPDTEFLSGAGTELSVRAKPS	–	–	–	–	–	–	0.000256	–	–
hdNT-1: Human cytosolic 5′deoxyribonucleotidase (protein, UniProt Q8TCD5 1-201, looked up) 5'(3')-deoxyribonucleotidase, …: MARSVRVLVDMDGVLADFEAGLLRGFRRRFPEEPHVPLEQRRGFLAREQYRALRPDLADKVASVYEAPGFFLDLEPIPGALDAVREMNDLPDTQVFICTSPLLKYHHCVGEKYRWVEQHLGPQFVERIILTRDKTVVLGDLLIDDKDTVRGQEETPSWEHILFTCCHNRHLVLPPTRRRLLSWSDNWREILDSKRGAAQRE	–	1500	3300	1500	–	–	–	–	3
mdNT-1: Murine cytosolic 5′deoxyribnucleotidase (protein, UniProt Q9JM14 1-200, looked up) 5'(3')-deoxyribonucleotidase, …: MAVKRPVRVLVDMDGVLADFESGLLQGFRRRFPEEPHVPLEQRRGFLANEQYGALRPDLAEKVASVYESPGFFLNLEPIPGALDALREMNDMKDTEVFICTTPLLKYDHCVGEKYRWVEQNLGPEFVERIILTRDKTVVMGDLLIDDKDNIQGLEETPSWEHILFTCCHNQHLALPPTRRRLLSWSDNWRGIIESKRASL	–	1400	1200	800	–	–	–	–	1

Reference: patent publication US20230322893A1, “CD47 BINDER AND LIPOSOME COMPLEX FOR CANCER TREATMENT” (priority 2020, published 2023)
